Columns and labels:
[1] = target: T1, class I MHC receptor HLA-A2 on T2 cells (human); assay: T2 cells, anti-HLA-A2 flow cytometry after brefeldin A; Assay #1; 6 hr
T1 construct: detected on the cell surface with a mouse anti-human HLA-A2 monoclonal antibody and goat anti-mouse IgG F(ab')2-FITC; also called HLA-A2 receptor; HLA-A2 class I MHC
Procedure: (§1) Following overnight incubation, the cells were washed and stained with mouse anti-human HLA-A2 monoclonal antibody for 15 min at 4° C.
(§2) After washing, the cells were incubated with goat anti-mouse IgG (F(ab′)₂)-FITC (Sigma, St. Louis, Mo.) for 15 min at 4° C. The cells were washed and analyzed on a FACSort flow cytometer with CellQuest v2.1 software (Becton-Dickson, San Jose, Calif.). […] Up-regulation of HLA-A2 expression correlates with binding of HLA-A2 by the filamin-B peptides.
(§3) To test the stability of the interaction between the peptides and HLA-A2, fluorescence was monitored for several hours following the addition of brefeldin A to the assay.

[2] = target: T1, class I MHC receptor HLA-A2 on T2 cells; assay: T2 cells, anti-HLA-A2 flow cytometry after brefeldin A; Average; 2 hr
Procedure: as §1, §2, §3

[3] = target: T1, class I MHC receptor HLA-A2 on T2 cells; assay: T2 cells, anti-HLA-A2 flow cytometry after brefeldin A; Average; 4 hr
Procedure: as §1, §2, §3

[4] = target: T1, class I MHC receptor HLA-A2 on T2 cells; assay: T2 cells, anti-HLA-A2 flow cytometry after brefeldin A; Assay #1; 2 hr
Procedure: as §1, §2, §3

[5] = target: T1, class I MHC receptor HLA-A2 on T2 cells; assay: T2 cells pulsed with peptide + b2m, anti-HLA-A2 flow cytometry; Average
Procedure: as §1, §2

[6] = target: T1, class I MHC receptor HLA-A2 on T2 cells; assay: T2 cells, anti-HLA-A2 flow cytometry after brefeldin A; Average; 8 hr
Procedure: as §1, §2, §3

[7] = target: T1, class I MHC receptor HLA-A2 on T2 cells; assay: T2 cells pulsed with peptide + b2m, anti-HLA-A2 flow cytometry; Assay #2
Procedure: as §1, §2

[8] = target: T1, class I MHC receptor HLA-A2 on T2 cells; assay: T2 cells, anti-HLA-A2 flow cytometry after brefeldin A; Assay #1; 18 hr
Procedure: as §1, §2, §3

[9] = target: T1, class I MHC receptor HLA-A2 on T2 cells; assay: T2 cells, anti-HLA-A2 flow cytometry after brefeldin A; Assay #2; 0 hr
Procedure: as §1, §2, §3

[10] = target: T1, class I MHC receptor HLA-A2 on T2 cells; assay: T2 cells, anti-HLA-A2 flow cytometry after brefeldin A; Assay #2; 8 hr
Procedure: as §1, §2, §3

[11] = target: T1, class I MHC receptor HLA-A2 on T2 cells; assay: T2 cells, anti-HLA-A2 flow cytometry after brefeldin A; Assay #1; 0 hr
Procedure: as §1, §2, §3

[12] = target: T1, class I MHC receptor HLA-A2 on T2 cells; assay: T2 cells, anti-HLA-A2 flow cytometry after brefeldin A; Average; 18 hr
Procedure: as §1, §2, §3

[13] = target: T1, class I MHC receptor HLA-A2 on T2 cells; assay: T2 cells pulsed with peptide + b2m, anti-HLA-A2 flow cytometry; Assay #1
Procedure: as §1, §2

[14] = target: T1, class I MHC receptor HLA-A2 on T2 cells; assay: T2 cells, anti-HLA-A2 flow cytometry after brefeldin A; Average; 0 hr
Procedure: as §1, §2, §3

[15] = target: T1, class I MHC receptor HLA-A2 on T2 cells; assay: T2 cells, anti-HLA-A2 flow cytometry after brefeldin A; Assay #2; 4 hr
Procedure: as §1, §2, §3

[16] = target: T1, class I MHC receptor HLA-A2 on T2 cells; assay: T2 cells, anti-HLA-A2 flow cytometry after brefeldin A; Assay #1; 8 hr
Procedure: as §1, §2, §3

[17] = target: T1, class I MHC receptor HLA-A2 on T2 cells; assay: T2 cells, anti-HLA-A2 flow cytometry after brefeldin A; Assay #2; 18 hr
Procedure: as §1, §2, §3

[18] = target: T1, class I MHC receptor HLA-A2 on T2 cells; assay: T2 cells, anti-HLA-A2 flow cytometry after brefeldin A; Assay #2; 2 hr
Procedure: as §1, §2, §3

[19] = target: T1, class I MHC receptor HLA-A2 on T2 cells; assay: T2 cells, anti-HLA-A2 flow cytometry after brefeldin A; Assay #1; 4 hr
Procedure: as §1, §2, §3

[20] = target: T1, class I MHC receptor HLA-A2 on T2 cells; assay: T2 cells, anti-HLA-A2 flow cytometry after brefeldin A; Assay #2; 6 hr
Procedure: as §1, §2, §3

[21] = target: T1, class I MHC receptor HLA-A2 on T2 cells; assay: T2 cells, anti-HLA-A2 flow cytometry after brefeldin A; Average; 6 hr
Procedure: as §1, §2, §3

## GQGDVMVFV [Filamin B peptide #6]
[1]
  fluorescence index: 1.23 F.I.
[2]
  fluorescence index: 1.67 F.I.
[3]
  fluorescence index: 1.47 F.I.
[4]
  fluorescence index: 1.74 F.I.
[5]
  fluorescence index: 2.32
[6]
  fluorescence index: 1.05 F.I.
[7]
  fluorescence index: 1.96
[8]
  fluorescence index: 1.1 F.I.
[9]
  fluorescence index: 1.96 F.I.
[10]
  fluorescence index: 1 F.I.
[11]
  fluorescence index: 2.67 F.I.
[12]
  fluorescence index: 1.05 F.I.
[13]
  fluorescence index: 2.67
[14]
  fluorescence index: 2.32 F.I.
[15]
  fluorescence index: 1.29 F.I.
[16]
  fluorescence index: 1.09 F.I.
[17]
  fluorescence index: 1 F.I.
[18]
  fluorescence index: 1.6 F.I.
[19]
  fluorescence index: 1.65 F.I.
[20]
  fluorescence index: 1 F.I.
[21]
  fluorescence index: 1.12 F.I.

## GLAPLEVRV [Filamin B peptide #3]
[1]
  fluorescence index: 4.27 F.I.
[2]
  fluorescence index: 3.82 F.I.
[3]
  fluorescence index: 3.79 F.I.
[4]
  fluorescence index: 4.3 F.I.
[5]
  fluorescence index: 3.93
[6]
  fluorescence index: 3.45 F.I.
[7]
  fluorescence index: 3.64
[8]
  fluorescence index: 3.1 F.I.
[9]
  fluorescence index: 3.64 F.I.
[10]
  fluorescence index: 2.89 F.I.
[11]
  fluorescence index: 4.21 F.I.
[12]
  fluorescence index: 2.6 F.I.
[13]
  fluorescence index: 4.21
[14]
  fluorescence index: 3.93 F.I.
[15]
  fluorescence index: 3.35 F.I.
[16]
  fluorescence index: 4.01 F.I.
[17]
  fluorescence index: 2.1 F.I.
[18]
  fluorescence index: 3.33 F.I.
[19]
  fluorescence index: 4.22 F.I.
[20]
  fluorescence index: 2.94 F.I.
[21]
  fluorescence index: 3.61 F.I.

## LILGLVWTL [Filamin B peptide #1]
[1]
  fluorescence index: 3.32 F.I.
[2]
  fluorescence index: 2.67 F.I.
[3]
  fluorescence index: 2.67 F.I.
[4]
  fluorescence index: 3.17 F.I.
[5]
  fluorescence index: 2.82
[6]
  fluorescence index: 2.4 F.I.
[7]
  fluorescence index: 2.17
[8]
  fluorescence index: 2.45 F.I.
[9]
  fluorescence index: 2.17 F.I.
[10]
  fluorescence index: 1.57 F.I.
[11]
  fluorescence index: 3.46 F.I.
[12]
  fluorescence index: 1.9 F.I.
[13]
  fluorescence index: 3.46
[14]
  fluorescence index: 2.82 F.I.
[15]
  fluorescence index: 2.16 F.I.
[16]
  fluorescence index: 3.22 F.I.
[17]
  fluorescence index: 1.35 F.I.
[18]
  fluorescence index: 2.17 F.I.
[19]
  fluorescence index: 3.17 F.I.
[20]
  fluorescence index: 1.83 F.I.
[21]
  fluorescence index: 2.58 F.I.

## SLQESGLKV [Filamin B peptide #4]
[1]
  fluorescence index: 1.18 F.I.
[2]
  fluorescence index: 1.4 F.I.
[3]
  fluorescence index: 1.28 F.I.
[4]
  fluorescence index: 1.43 F.I.
[5]
  fluorescence index: 1.79
[6]
  fluorescence index: 1.05 F.I.
[7]
  fluorescence index: 1.61
[8]
  fluorescence index: 1.1 F.I.
[9]
  fluorescence index: 1.61 F.I.
[10]
  fluorescence index: 1 F.I.
[11]
  fluorescence index: 1.96 F.I.
[12]
  fluorescence index: 1.05 F.I.
[13]
  fluorescence index: 1.96
[14]
  fluorescence index: 1.79 F.I.
[15]
  fluorescence index: 1.13 F.I.
[16]
  fluorescence index: 1.09 F.I.
[17]
  fluorescence index: 1 F.I.
[18]
  fluorescence index: 1.37 F.I.
[19]
  fluorescence index: 1.43 F.I.
[20]
  fluorescence index: 1 F.I.
[21]
  fluorescence index: 1.09 F.I.

## KLILGLVWT [Filamin B peptide #7]
[1]
  fluorescence index: 1.09 F.I.
[2]
  fluorescence index: 1.16 F.I.
[3]
  fluorescence index: 1.16 F.I.
[4]
  fluorescence index: 1.24 F.I.
[5]
  fluorescence index: 1.32
[6]
  fluorescence index: 1.05 F.I.
[7]
  fluorescence index: 1.25
[8]
  fluorescence index: 1.25 F.I.
[9]
  fluorescence index: 1.25 F.I.
[10]
  fluorescence index: 1 F.I.
[11]
  fluorescence index: 1.38 F.I.
[12]
  fluorescence index: 1.13 F.I.
[13]
  fluorescence index: 1.38
[14]
  fluorescence index: 1.32 F.I.
[15]
  fluorescence index: 1.1 F.I.
[16]
  fluorescence index: 1.09 F.I.
[17]
  fluorescence index: 1 F.I.
[18]
  fluorescence index: 1.07 F.I.
[19]
  fluorescence index: 1.22 F.I.
[20]
  fluorescence index: 1 F.I.
[21]
  fluorescence index: 1.05 F.I.
